According to patent publication US20210238298A1 (ALLIGATOR BIOSCIENCE, published 2021):

How the values were obtained:
[1] = target: T1, Human OX40 (R&D systems, #3358_OX) (human, UniProt P43489 29-216); test: SPR (Biacore), immobilised human OX40
T1 construct: Bought; Several catalogue numbers are given for it; also called human OX40 (R&D Systems, 3388-OX); OX40-Fc (R&D systems, #3358_OX); not shown: Fc part
T1 sequence: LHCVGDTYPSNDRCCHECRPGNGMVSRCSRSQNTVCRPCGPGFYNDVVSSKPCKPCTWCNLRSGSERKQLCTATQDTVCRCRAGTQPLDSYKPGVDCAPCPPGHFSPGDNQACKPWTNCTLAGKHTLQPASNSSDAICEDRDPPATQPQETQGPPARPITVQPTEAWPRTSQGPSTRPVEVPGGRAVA
Description: Human OX40 (R&D systems, #3358_OX) was immobilized to the Biacore™ sensor chip, CM5, using conventional amine coupling. The tested antibodies and controls (serially diluted ⅓ or ½ 100-2 nM) were analyzed for binding in HBS-P (GE, #BR-1003-68) at a flow rate of […]. The association was followed for 3 minutes and the dissociation for 20 minutes. Regeneration was performed twice using 50 mM NaOH for 60 seconds. The kinetic parameters and the affinity constants were calculated using 1:1 Langmuir model with drifting baseline. […] The kinetic parameters and the affinity constants were calculated using BIAevaluation 4.1 software.

[2] = target: T2, extracellular part of human OX40 fused to the transmembrane and intracellular part of hCD40, on CHO cells (human, UniProt P25942 194-277, limits assumed); test: flow cytometry, cells with human OX40; 95% confidence interval
T2 construct: domain: transmembrane and intracellular part; also called hOX40 overexpressed on CHO cells; huOX40 (CHO)
T2 sequence: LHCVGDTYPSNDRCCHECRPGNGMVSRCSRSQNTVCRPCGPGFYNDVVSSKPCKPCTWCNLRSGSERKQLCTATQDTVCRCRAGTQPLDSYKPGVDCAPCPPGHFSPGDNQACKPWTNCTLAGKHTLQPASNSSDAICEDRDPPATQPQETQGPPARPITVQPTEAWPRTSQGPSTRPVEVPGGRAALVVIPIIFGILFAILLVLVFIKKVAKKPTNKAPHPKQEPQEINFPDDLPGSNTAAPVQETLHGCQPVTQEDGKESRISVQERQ
Description: (§1) For the assay, the transfected cells were incubated with the test antibodies and controls for 30 min at 4° C. and then detected with a-huIgG-PE (Jackson Immunoresearch) 30 min 4° C. Cells were analyzed by flow cytometry with FACS Verse (BD Biosciences).

[3] = target: extracellular part of OX40 from Macaca mulatta fused to the transmembrane and intracellular part of hCD40, on … (Macaca mulatta; human, UniProt A0A5F7ZKD5 21-541; P25942 194-277); test: flow cytometry, macOX40-HEK cells; 95% confidence interval
Description: as §1

CD40 (Ancell) = target: T3, CD40 (Ancell) (UniProt P25942 21-193); test: ELISA
T3 construct: also called CD40-Fc (Ancell #504-820); not shown: Fc part, not described

murine OX40 = target: T4, murine OX40 (murine, UniProt P47741 20-211, limits assumed); test: ELISA
T4 sequence (looked up): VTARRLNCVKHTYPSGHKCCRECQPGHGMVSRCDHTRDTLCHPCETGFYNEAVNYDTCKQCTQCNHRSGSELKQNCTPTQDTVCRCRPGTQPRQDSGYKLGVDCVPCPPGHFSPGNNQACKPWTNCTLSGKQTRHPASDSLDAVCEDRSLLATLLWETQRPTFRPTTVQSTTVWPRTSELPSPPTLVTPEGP

[4] = target: T5, recombinant human CD137-Fc (R&D #838-4B) (human, UniProt Q07011 24-186); test: ELISA
T5 construct: Bought; also called Human CD137 (R&D systems); CD137 (R&D Systems); not shown: Fc part, not described

[5] = target: T2, extracellular part of human OX40 fused …; test: flow cytometry, CHO cells with human OX40 (extracellular part on hCD40 transmembrane and intracellular part), anti-huIgG-PE
Description: as §1, with “The extracellular part of human OX40 was fused to the transmembrane and intracellular part of hCD40 and cloned into pcDNA3.0. The vector was subsequently stably transfected into CHO cells. […] For” for “For”

[6] = target: T6, OX40 chimera 1549: human OX40 with mouse domains 1A and 4B and non-annotated extracellular region (aa 30-65 … (human; mouse, UniProt P47741 26-61; P47741 125-211); test: flow cytometry, 293-F transfectants
T6 construct: domain: 1A;domain: 4B and non-annotated extracellular region; Limits derived as for 1544
T6 sequence: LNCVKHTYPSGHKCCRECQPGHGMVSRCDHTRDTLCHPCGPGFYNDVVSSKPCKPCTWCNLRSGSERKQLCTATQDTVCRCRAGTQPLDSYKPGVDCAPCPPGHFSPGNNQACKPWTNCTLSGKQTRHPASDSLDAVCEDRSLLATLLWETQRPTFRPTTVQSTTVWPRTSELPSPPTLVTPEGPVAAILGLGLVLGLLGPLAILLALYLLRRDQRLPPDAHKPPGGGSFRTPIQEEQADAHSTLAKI

T3 sequence (P25942 21-193 limits assumed): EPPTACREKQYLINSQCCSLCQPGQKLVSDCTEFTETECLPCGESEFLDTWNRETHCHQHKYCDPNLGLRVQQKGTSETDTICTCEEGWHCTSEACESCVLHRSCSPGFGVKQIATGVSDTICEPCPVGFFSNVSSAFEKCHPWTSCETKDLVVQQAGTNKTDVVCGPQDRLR
T5 sequence (Q07011 24-186 limits assumed): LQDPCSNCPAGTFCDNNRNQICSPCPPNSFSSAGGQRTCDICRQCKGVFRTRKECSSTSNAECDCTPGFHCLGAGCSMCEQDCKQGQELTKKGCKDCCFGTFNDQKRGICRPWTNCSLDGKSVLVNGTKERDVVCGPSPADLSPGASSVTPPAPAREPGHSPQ

| Binder | Kd [1] | koff [1] | kon [1] | EC50 [2] | EC50 [3] | binding result (CD40 (Ancell)) | binding result (murine OX40) | binding result [4] | EC50 (read off the curve) [5] | relative MFI vs isotype control [6] |
| --- | --- | --- | --- | --- | --- | --- | --- | --- | --- | --- |
| anti-OX40 antibody 1168/1135 (antibody, V domains shown, Tested as IgG) VH: EVQLLESGGGLVQPGGSLRLSCAASGFTFSGSSMSWVRQAPGKGLEWVSSISYYGGYTYYADSVKGRFTISRDNSKNTLYLQMNSLRAEDTAVYYCARYFPHYYFDYWGQGTLVTVSS VL: not shown | 0.327 nM | 0.000169 s⁻¹ | 518000 M⁻¹ s⁻¹ | 0.0636 to 0.131 µg/mL | 0.0905 to 0.194 µg/mL | no binding | no binding | no binding | – | – |
| anti-OX40 antibody 1164/1135 (antibody, V domains shown, Tested as IgG) VH: EVQLLESGGGLVQPGGSLRLSCAASGFTFYGSSMYWVRQAPGKGLEWVSGIYSSGGYTSYADSVKGRFTISRDNSKNTLYLQMNSLRAEDTAVYYCARGVPHGYFDYWGQGTLVTVSS VL: not shown | 0.308 nM | 7.73e-05 s⁻¹ | 251000 M⁻¹ s⁻¹ | – | – | no binding | no binding | no binding | ~0.01 µg/mL | – |
| anti-OX40 antibody 1542/1135 (antibody, V domains shown, Tested as IgG) VH: EVQLLESGGGLVQPGGSLRLSCAASGFTFGSSSMYWVRQAPGKGLEWVSGIGYYSYSTSYADSVKGRFTISRDNSKNTLYLQMNSLRAEDTAVYYCARGYPHHYFDYWGQGTLVTVSS VL: not shown | 0.463 nM | 0.0001 s⁻¹ | 216000 M⁻¹ s⁻¹ | 0.322 to 0.552 µg/mL | 0.722 to 1.41 µg/mL | no binding | no binding | no binding | – | 13 |
| anti-OX40 antibody 1524/1525 (antibody, V domains shown, Tested as IgG) VH: EVQLLESGGGLVQPGGSLRLSCAASGFTFGSYYMGWVRQAPGKGLEWVSSIGSYYGYTYYADSVKGRFTISRDNSKNTLYLQMNSLRAEDTAVYYCARHDYGALDYWGQGTLVTVSS VL: DIQMTQSPSSLSASVGDRVTITCRASQSISSYLNWYQQKPGKAPKLLIYAASSLQSGVPSRFSGSGSGTDFTLTISSLQPEDFATYYCQQYGPSGLFTFGQGTKLEIK | 0.811 nM | 0.00139 s⁻¹ | 1.71e+06 M⁻¹ s⁻¹ | – | – | no binding | no binding | no binding | ~0.05 µg/mL | 11.2 |
| anti-OX40 antibody 1482/1483 (antibody, V domains shown, Tested as IgG) VH: EVQLLESGGGLVQPGGSLRLSCAASGFTFSSYAMSWVRQAPGKGLEWVSYISYYSGYTYYADSVKGRFTISRDNSKNTLYLQMNSLRAEDTAVYYCARGYGYLDYWGQGTLVTVSS VL: DIQMTQSPSSLSASVGDRVTITCRASQSISSYLNWYQQKPGKAPKLLIYAASSLQSGVPSRFSGSGSGTDFTLTISSLQPEDFATYYCQQYGSLLTFGQGTKLEIK | 0.753 nM | 0.000584 s⁻¹ | 776000 M⁻¹ s⁻¹ | 0.082 to 0.182 µg/mL | 0.157 to 0.312 µg/mL | no binding | no binding | no binding | – | 8.7 |
| anti-OX40 antibody 1526/1527 (antibody, V domains shown, Tested as IgG) VH: EVQLLESGGGLVQPGGSLRLSCAASGFTFSGYSMYWVRQAPGKGLEWVSGIGYSGYGTYYADSVKGRFTISRDNSKNTLYLQMNSLRAEDTAVYYCARYYFHDYAAYSLDYWGQGTLVTVSS VL: DIQMTQSPSSLSASVGDRVTITCRASQSISSYLNWYQQKPGKAPKLLIYAASSLQSGVPSRFSGSGSGTDFTLTISSLQPEDFATYYCQQYGSDSLLTFGQGTKLEIK | 0.43 nM | 0.000187 s⁻¹ | 435000 M⁻¹ s⁻¹ | 0.172 to 0.429 µg/mL | 0.292 to 0.589 µg/mL | no binding | no binding | no binding | – | 8.5 |
